Test results as given in patent US20250152742A1, “COMPOSITIONS AND METHODS FOR NEUROLOGICAL DISEASES” (Trames Bio, Inc., priority 2022, published 2025).

Test system: engineered chimeric receptor SEQ ID NO: 33 and its mutants (human α7-nAChR ligand binding domain / human GlyRα1 ion pore domain) in Lenti-X 293T cells
Experiment: YFP fluorescence quenching anion reporter plate reader assay (percent quench, EC50)
Type: cell-based
Details: for YFP fluorescence quenching using CNL001 (percent quench): receptor named in row; for YFP fluorescence quenching using Varenicline, 3 nM var: ligand Varenicline 3 nM; for YFP fluorescence quenching using Varenicline, 30 nM var: ligand Varenicline 30 nM; for YFP fluorescence quenching using Varenicline, 300 nM var: ligand Varenicline 300 nM; for YFP fluorescence quenching using Varenicline, 500 nM var: ligand Varenicline 500 nM; for YFP fluorescence quenching using Varenicline, 1 uM var: ligand Varenicline 1 uM; for EC50: ligand TC-5619, YFP plate reader
Outline: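 Lenti-X 293T cells co-expressing an anion-quenchable YFP were transiently transfected with receptor DNA, then ligand was added in NaI-substituted buffer (pH 7.2) after 30 min at 37 °C. Fluorescence was read about 2 min; percent quench = mean of last 10 s over 15 s pre-ligand baseline.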

[1] = 1 nM CNL001, first column so headed
[2] = 1 nM CNL001, second column so headed
[3] = 1 nM brd (TC-5619/Bradanicline)
[4] = 3 nM brd (TC-5619/Bradanicline)
[5] = 10 nM CNL001, first column so headed
[6] = 10 nM CNL001, second column so headed
[7] = 10 nM brd (TC-5619/Bradanicline)
[8] = 30 nM brd (TC-5619/Bradanicline)
[9] = 50 nM CNL001, first column so headed
[10] = 50 nM CNL001, second column so headed
[11] = 100 nM CNL001, first column so headed
[12] = 100 nM CNL001, second column so headed
[13] = 100 nM brd (TC-5619/Bradanicline)
[14] = 300 nM brd (TC-5619/Bradanicline)
[15] = 1 uM CNL001, first column so headed
[16] = 1 uM CNL001, second column so headed

B1: CODA1048: engineered receptor: R101F, Y210F in SEQ ID NO: 33 (protein)
chain: MRCSPGGVWLALAASLLHVSLQGEFQRKLYKELVKNYNPLERPVANDSQPLTVYFSLSLLQIMDVDEKNQVLTTNIWLQMSWTDHYLQWNVSEYPGVKTVFFPDGQIWKPDILLYNSADERFDATFHTNVLVNSSGHCQYLPPGIFKSSCPMDLKNFPMDVQTCKLKFGSWSYGGWSLDLQMQEADISGYIPNGEWDLVGIPGKRSERFFECCKEPYPDVTFTVTMRRRMGYYLIQMYIPSLLIVILSWISFWINMDAAPARVGLGITTVLTMTTQSSGSRASLPKVSYVKAIDIWMAVCLLFVFSALLEYAAVNFVSRQHKELLRFRRKRRHHKSPMLNLFQEDEAGEGRFNFSAYGMGPACLQAKDGISVKGANNSNTTNPPPAPSKSPEEMRKLFIQRAKKIDKISRIGFPMAFLIFNMFYWIIYKIVRREDVHNQ
modifications: synthetic sequence of chimeric LGIC
In the case of B1, the “YFP fluorescence quenching using CNL001 (percent quench)” value [1] is reported as 9.114%, the “YFP fluorescence quenching using CNL001 (percent quench)” value [2] is reported as 0.845% and the “YFP fluorescence quenching using TC-5619/Bradanicline (percent quench)” value [3] is reported as −2.084%. For the same molecule, the “YFP fluorescence quenching using TC-5619/Bradanicline (percent quench)” value [4] was −9.098%, the “YFP fluorescence quenching using CNL001 (percent quench)” value [5] was 28.944% and the “YFP fluorescence quenching using CNL001 (percent quench)” value [6] was 53.629%. The “YFP fluorescence quenching using TC-5619/Bradanicline (percent quench)” value [7] was −2.587%, the “YFP fluorescence quenching using TC-6683 (percent quench)” value (30 nM TC-6683) was −29.055% and the “YFP fluorescence quenching using TC-5619/Bradanicline (percent quench)” value [8] was 55.818%. The “YFP fluorescence quenching using CNL001 (percent quench)” value [9] was 68.581%, the “YFP fluorescence quenching using CNL001 (percent quench)” value [10] was 74.379% and the “YFP fluorescence quenching using ABT-126 (percent quench)” value (50 nM abt (ABT-126)) was −23.28%. For the same molecule, the “YFP fluorescence quenching using CNL001 (percent quench)” value [11] was 80.541%, the “YFP fluorescence quenching using CNL001 (percent quench)” value [12] was 80.774% and the “YFP fluorescence quenching using ABT-126 (percent quench)” value (100 nM abt (ABT-126)) was −21.78%. For the same molecule, the “YFP fluorescence quenching using TC-5619/Bradanicline (percent quench)” value [13] was 76.957%, the “YFP fluorescence quenching using TC-6683 (percent quench)” value (300 nM TC-6683) was −33.935% and the “YFP fluorescence quenching using ABT-126 (percent quench)” value (300 nM abt (ABT-126)) was −19.35%. The “YFP fluorescence quenching using TC-5619/Bradanicline (percent quench)” value [14] was 74.268%, the “YFP fluorescence quenching using CNL001 (percent quench)” value [15] was 83.143% and the “YFP fluorescence quenching using CNL001 (percent quench)” value [16] was 81.751%. The “YFP fluorescence quenching using ABT-126 (percent quench)” value (1 uM abt (ABT-126)) was −16.33%, the “YFP fluorescence quenching using TC-6683 (percent quench)” value (3 uM TC-6683) was −24.613% and the “YFP fluorescence quenching using TC-6683 (percent quench)” value (30 uM TC-6683) was −21.752%. For the same molecule, the “YFP fluorescence quenching using TC-6683 (percent quench)” value (100 uM TC-6683) was −22.815%, the “YFP fluorescence quenching (percent quench)” value (100 uM ach (acetylcholine)) was −17.31% and the “YFP fluorescence quenching (percent quench)” value (300 uM ach (acetylcholine)) was −13.7%. For the same molecule, the “YFP fluorescence quenching (percent quench)” value (500 uM ach (acetylcholine)) was −10.1%, the “YFP fluorescence quenching (percent quench)” value (1 mM ach (acetylcholine)) was 5.53% and the “YFP fluorescence quenching (percent quench)” value (3 mM ach (acetylcholine)) was 68.61%. The “YFP fluorescence quenching (percent quench)” value (10 mM ach (acetylcholine)) was 78.22%, the “YFP fluorescence quenching using Varenicline, 3 nM var” value (“YFP fluorescence quenching … 3 nM var” below) (first column) was −17.119 and the “YFP fluorescence quenching … 3 nM var” value (second column) was −13.234. The “YFP fluorescence quenching using Varenicline, 30 nM var” value (“YFP fluorescence quenching … 30 nM var” for short) (first column) was −7.747, the “YFP fluorescence quenching … 30 nM var” value (second column) was 4.193 and the “YFP fluorescence quenching using Varenicline, 300 nM var” value (shortened to “YFP fluorescence quenching … 300 nM var”) (first column) was 4.149. For the same molecule, the “YFP fluorescence quenching … 300 nM var” value (second column) was 1.512, the “YFP fluorescence quenching using Varenicline, 500 nM var” value (“YFP fluorescence quenching … 500 nM var” for short) (first column) was −1.572 and the “YFP fluorescence quenching … 500 nM var” value (second column) was 3.71. For the same molecule, the “YFP fluorescence quenching using Varenicline, 1 uM var” value (“YFP fluorescence quenching … 1 uM var” below) (first column) was 8.414 and the “YFP fluorescence quenching … 1 uM var” value (second column) was 4.091.

B2: CODA1054: engineered receptor: R101M, L131F in SEQ ID NO: 33 (protein)
chain: MRCSPGGVWLALAASLLHVSLQGEFQRKLYKELVKNYNPLERPVANDSQPLTVYFSLSLLQIMDVDEKNQVLTTNIWLQMSWTDHYLQWNVSEYPGVKTVMFPDGQIWKPDILLYNSADERFDATFHTNVFVNSSGHCQYLPPGIFKSSCPMDLKNFPMDVQTCKLKFGSWSYGGWSLDLQMQEADISGYIPNGEWDLVGIPGKRSERFYECCKEPYPDVTFTVTMRRRMGYYLIQMYIPSLLIVILSWISFWINMDAAPARVGLGITTVLTMTTQSSGSRASLPKVSYVKAIDIWMAVCLLFVFSALLEYAAVNFVSRQHKELLRFRRKRRHHKSPMLNLFQEDEAGEGRFNFSAYGMGPACLQAKDGISVKGANNSNTTNPPPAPSKSPEEMRKLFIQRAKKIDKISRIGFPMAFLIFNMFYWIIYKIVRREDVHNQ
modifications: synthetic sequence of chimeric LGIC
For B2, the “YFP fluorescence quenching using CNL001 (percent quench)” value [1] was 21.932%, the “YFP fluorescence quenching using CNL001 (percent quench)” value [2] was 39.689% and the “YFP fluorescence quenching using TC-5619/Bradanicline (percent quench)” value [3] was 6.609%. For the same molecule, the “YFP fluorescence quenching using TC-5619/Bradanicline (percent quench)” value [4] was −7.635%, the “YFP fluorescence quenching using CNL001 (percent quench)” value [5] was 54.192% and the “YFP fluorescence quenching using CNL001 (percent quench)” value [6] was 64.111%. For the same molecule, the “YFP fluorescence quenching using TC-5619/Bradanicline (percent quench)” value [7] was 4.459%, the “YFP fluorescence quenching using TC-6683 (percent quench)” value (30 nM TC-6683) was −22.996% and the “YFP fluorescence quenching using TC-5619/Bradanicline (percent quench)” value [8] was 69.782%. The “YFP fluorescence quenching using CNL001 (percent quench)” value [9] was 71.409%, the “YFP fluorescence quenching using CNL001 (percent quench)” value [10] was 70.989% and the “YFP fluorescence quenching using ABT-126 (percent quench)” value (50 nM abt (ABT-126)) was −19.54%. The “YFP fluorescence quenching using CNL001 (percent quench)” value [11] was 74.148%, the “YFP fluorescence quenching using CNL001 (percent quench)” value [12] was 71.722% and the “YFP fluorescence quenching using ABT-126 (percent quench)” value (100 nM abt (ABT-126)) was −18.28%. For the same molecule, the “YFP fluorescence quenching using TC-5619/Bradanicline (percent quench)” value [13] was 77.633%, the “YFP fluorescence quenching using TC-6683 (percent quench)” value (300 nM TC-6683) was −27.055% and the “YFP fluorescence quenching using ABT-126 (percent quench)” value (300 nM abt (ABT-126)) was −16.87%. The “YFP fluorescence quenching using TC-5619/Bradanicline (percent quench)” value [14] was 72.933%, the “YFP fluorescence quenching using CNL001 (percent quench)” value [15] was 71.378% and the “YFP fluorescence quenching using CNL001 (percent quench)” value [16] was 71.411%. For the same molecule, the “YFP fluorescence quenching using ABT-126 (percent quench)” value (1 uM abt (ABT-126)) was −11.77%, the “YFP fluorescence quenching using TC-6683 (percent quench)” value (3 uM TC-6683) was −18.611% and the “YFP fluorescence quenching (percent quench)” value (10 uM ach (acetylcholine)) was −3.98%. For the same molecule, the “YFP fluorescence quenching using TC-6683 (percent quench)” value (30 uM TC-6683) was −13.879%, the “YFP fluorescence quenching using TC-6683 (percent quench)” value (100 uM TC-6683) was −21.521% and the “YFP fluorescence quenching (percent quench)” value (100 uM ach (acetylcholine)) was −10.34%. For the same molecule, the “YFP fluorescence quenching (percent quench)” value (300 uM ach (acetylcholine)) was −10.25%, the “YFP fluorescence quenching (percent quench)” value (500 uM ach (acetylcholine)) was −11.46% and the “YFP fluorescence quenching (percent quench)” value (1 mM ach (acetylcholine)) was 1.77%. For the same molecule, the “YFP fluorescence quenching (percent quench)” value (3 mM ach (acetylcholine)) was 36.81%, the “YFP fluorescence quenching (percent quench)” value (10 mM ach (acetylcholine)) was 74.02% and the “YFP fluorescence quenching … 3 nM var” value (first column) was 34.923. The “YFP fluorescence quenching … 3 nM var” value (second column) was 28.944, the “YFP fluorescence quenching … 30 nM var” value (first column) was 42.214 and the “YFP fluorescence quenching … 30 nM var” value (second column) was 43.015. The “YFP fluorescence quenching … 300 nM var” value (first column) was 47.059, the “YFP fluorescence quenching … 300 nM var” value (second column) was 52.768 and the “YFP fluorescence quenching … 500 nM var” value (first column) was 59.542. For the same molecule, the “YFP fluorescence quenching … 500 nM var” value (second column) was 62.641, the “YFP fluorescence quenching … 1 uM var” value (first column) was 71.449 and the “YFP fluorescence quenching … 1 uM var” value (second column) was 69.145.

B3: COAD1056 (protein)
chain: MRCSPGGVWLALAASLLHVSLQGEFQRKLYKELVKNYNPLERPVANDSQPLTVYFSLSLLQIMDVDEKNQVLTTNIWLQMSWTDHYLQWNVSEYPGVKTVFFPDGQIWKPDILLENSADERFDATFHTNVLVNSSGHCQYLPPGIFKSSCPMDLKNFPMDVQTCKLKFGSWSYGGWSLDLQMQEADISGYIPNGEWDLVGIPGKRSERFWECCKEPYPDVTFTVTMRRRMGYYLIQMYIPSLLIVILSWISFWINMDAAPARVGLGITTVLTMTTQSSGSRASLPKVSYVKAIDIWMAVCLLFVFSALLEYAAVNFVSRQHKELLRFRRKRRHHKSPMLNLFQEDEAGEGRFNFSAYGMGPACLQAKDGISVKGANNSNTTNPPPAPSKSPEEMRKLFIQRAKKIDKISRIGFPMAFLIFNMFYWIIYKIVRREDVHNQ
modifications: synthetic sequence of chimeric LGIC
In the case of B3, the EC50 is reported as 25.1 nM.

B4: COAD1055 (protein)
chain: MRCSPGGVWLALAASLLHVSLQGEFQRKLYKELVKNYNPLERPVANDSQPLTVYFSLSLLQIMDVDEKNQVLTTNIWLQMSWTDHYLQWNVSEYPGVKTVWFPDGQIWKPDILLENSADERFDATFHTNVLVNSSGHCQYLPPGIFKSSCPMDLKNFPMDVQTCKLKFGSWSYGGWSLDLQMQEADISGYIPNGEWDLVGIPGKRSERFWECCKEPYPDVTFTVTMRRRMGYYLIQMYIPSLLIVILSWISFWINMDAAPARVGLGITTVLTMTTQSSGSRASLPKVSYVKAIDIWMAVCLLFVFSALLEYAAVNFVSRQHKELLRFRRKRRHHKSPMLNLFQEDEAGEGRFNFSAYGMGPACLQAKDGISVKGANNSNTTNPPPAPSKSPEEMRKLFIQRAKKIDKISRIGFPMAFLIFNMFYWIIYKIVRREDVHNQ
modifications: synthetic sequence of chimeric LGIC
Work on B4 yielded an EC50 of 23.5 nM.
